# Measurements from paper PMC8103725 (FASEB BioAdvances, 2021).
# B1: His6-EGFP-KRIT1 (WT) FERM domain (417–736) (domain or fragment, human, UniProt O00522 417-736, looked up)
# chain: KPYEKVRIYRMDGSYRSVELKHGNNTTVQQIMEGMRLSQETQQYFTIWICSENLSLQLKPYHKPLQHVRDWPEILAELTNLDPQRETPQLFLRRDVRLPLEVEKQIEDPLAILILFDEARYNLLKGFYTAPDAKLITLASLLLQIVYGNYESKKHKQGFLNEENLKSIVPVTKLKSKAPHWTNRILHEYKNLSTSEGVSKEMHHLQRMFLQNCWEIPTYGAAFFTGQIFTKASPSNHKVIPVYVGVNIKGLHLLNMETKALLISLKYGCFMWQLGDTDTCFQIHSMENKMSFIVHTKQAGLVVKLLMKLNGQLMPTERNS
# B2: biotinylated HEG1 cytoplasmic tail (a.a. 1274–1381) (domain or fragment, UniProt Q9ULI3 1274-1381, looked up)
# chain: RKNKNDISKLIFKSGDFQMSPYAEYPKNPRSQEWGREAIEMHENGSTKNLLQMTDVYYSPTSVRNPELERNGLYPAYTGLPGSRHSCIFPGQYNPSFISDESRRRDYF
# modifications: biotin on the in vivo biotinylation peptide tag
# What was measured:
# [1] = biological target: B2; experiment: flow cytometry on beads
# [2] = biological target: B1; experiment: flow cytometry on beads
EC50 [1] [nM],binding result [2],Binder
32.4,,B1
,binds,B2
